Measured values from IntAct's records for PubMed 31515488.

B1: Beta-taxilin (Homo sapiens), Q8N3L3 (parent)
chain: MEANHSEQLSAERQSTPPGDSSSLPSHNGLEKEDGQDSPTPVQPPEKEASVHPDISEELNRQLEDIINTYGSAASTAGKEGSARASEQPENAESPDNEDGDCEETTEEAGREPVASGEPPTVKEPVSNKEQKLEKKILKGLGKEANLLMQNLNKLQTPEEKFDFLFKKYAELLDEHRTEQKKLKLLQKKQVQIQKEKDQLQGEHSRAILARSKLESLCRELQRHNKTLKEEALQRAREEEEKRKEITSHFQSTLTDIQGQIEQQSERNMKLCQENTELAEKLKSIIDQYELREEHLDKIFKHRELQQKLVDAKLEQAQEMMKEAEERHKREKEYLLNQAAEWKLQAKVLKEQETVLQAQLTLYSGRFEEFQSTLTKSNEVFATFKQEMDKTTKKMKKLEKDTATWKARFENCNKALLDMIEEKALRAKEYECFVMKIGRLENLCRALQEERNELHKKIRDAEISEKDDQSQHNSDEEPESNVSVDQEIDAEEVNSVQTAVKNLATAFMIIHHPESTPHQSKETQPEIGSSQESADAALKEPEQPPLIPSRDSESPLPPLTPQAEAEGGSDAEPPSKASNSPAGLGAETQCEGLPVGAQADQASWKPEAEASGQAPQAPTEASLQKMEADVPAPACAAEEHVAAMVPACEPSRQPPRAAAEELPVGASAGPQPRNVADTNLEGVD
B2: Alpha-ketoglutarate-dependent dioxygenase alkB homolog 3 (Homo sapiens), Q96Q83 (parent)
chain: MEEKRRRARVQGAWAAPVKSQAIAQPATTAKSHLHQKPGQTWKNKEHHLSDREFVFKEPQQVVRRAPEPRVIDREGVYEISLSPTGVSRVCLYPGFVDVKEADWILEQLCQDVPWKQRTGIREDITYQQPRLTAWYGELPYTYSRITMEPNPHWHPVLRTLKNRIEENTGHTFNSLLCNLYRNEKDSVDWHSDDEPSLGRCPIIASLSFGATRTFEMRKKPPPEENGDYTYVERVKIPLDHGTLLIMEGATQADWQHRVPKEYHSREPRVNLTFRTVYPDPRGAPW
B3: Cytochrome b-245 chaperone 1 (Homo sapiens), Q9BQA9 (parent)
chain: MYLQVETRTSSRLHLKRAPGIRSWSLLVGILSIGLAAAYYSGDSLGWKLFYVTGCLFVAVQNLEDWEEAIFDKSTGKVVLKTFSLYKKLLTLFRAGHDQVVVLLHDVRDVSVEEEKVRYFGKGYMVVLRLATGFSHPLTQSAVMGHRSDVEAIAKLITSFLELHCLESPTELSQSSDSEAGDPASQS
partner: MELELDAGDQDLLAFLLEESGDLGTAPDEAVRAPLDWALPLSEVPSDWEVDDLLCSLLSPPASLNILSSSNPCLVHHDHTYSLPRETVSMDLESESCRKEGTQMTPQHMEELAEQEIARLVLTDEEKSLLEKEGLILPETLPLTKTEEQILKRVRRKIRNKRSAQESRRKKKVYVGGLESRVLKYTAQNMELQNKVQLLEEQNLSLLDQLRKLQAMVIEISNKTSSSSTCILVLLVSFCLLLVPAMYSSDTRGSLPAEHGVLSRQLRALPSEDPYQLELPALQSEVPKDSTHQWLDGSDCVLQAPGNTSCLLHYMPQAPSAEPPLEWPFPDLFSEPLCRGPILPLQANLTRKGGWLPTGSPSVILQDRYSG
B4: Zinc finger protein Aiolos (Homo sapiens), Q9UKT9 (parent)
chain: MEDIQTNAELKSTQEQSVPAESAAVLNDYSLTKSHEMENVDSGEGPANEDEDIGDDSMKVKDEYSERDENVLKSEPMGNAEEPEIPYSYSREYNEYENIKLERHVVSFDSSRPTSGKMNCDVCGLSCISFNVLMVHKRSHTGERPFQCNQCGASFTQKGNLLRHIKLHTGEKPFKCHLCNYACQRRDALTGHLRTHSVEKPYKCEFCGRSYKQRSSLEEHKERCRTFLQSTDPGDTASAEARHIKAEMGSERALVLDRLASNVAKRKSSMPQKFIGEKRHCFDVNYNSSYMYEKESELIQTRMMDQAINNAISYLGAEALRPLVQTPPAPTSEMVPVISSMYPIALTRAEMSNGAPQELEKKSIHLPEKSVPSERGLSPNNSGHDSTDTDSNHEERQNHIYQQNHMVLSRARNGMPLLKEVPRSYELLKPPPICPRDSVKVINKEGEVMDVYRCDHCRVLFLDYVMFTIHMGCHGFRDPFECNMCGYRSHDRYEFSSHIARGEHRALLK
partner: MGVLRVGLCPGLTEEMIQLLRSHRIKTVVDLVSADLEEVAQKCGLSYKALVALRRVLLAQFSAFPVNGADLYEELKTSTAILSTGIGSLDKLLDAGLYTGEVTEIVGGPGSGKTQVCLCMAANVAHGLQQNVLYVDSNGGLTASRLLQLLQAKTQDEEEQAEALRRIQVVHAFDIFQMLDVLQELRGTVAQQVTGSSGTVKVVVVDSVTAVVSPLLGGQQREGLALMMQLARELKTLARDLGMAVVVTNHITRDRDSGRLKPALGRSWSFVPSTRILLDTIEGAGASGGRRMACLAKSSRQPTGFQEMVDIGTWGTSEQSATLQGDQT
B5: E3 ubiquitin-protein ligase Midline-1 (Homo sapiens), O15344 (parent)
chain: METLESELTCPICLELFEDPLLLPCAHSLCFNCAHRILVSHCATNESVESITAFQCPTCRHVITLSQRGLDGLKRNVTLQNIIDRFQKASVSGPNSPSETRRERAFDANTMTSAEKVLCQFCDQDPAQDAVKTCVTCEVSYCDECLKATHPNKKPFTGHRLIEPIPDSHIRGLMCLEHEDEKVNMYCVTDDQLICALCKLVGRHRDHQVAALSERYDKLKQNLESNLTNLIKRNTELETLLAKLIQTCQHVEVNASRQEAKLTEECDLLIEIIQQRRQIIGTKIKEGKVMRLRKLAQQIANCKQCIERSASLISQAEHSLKENDHARFLQTAKNITERVSMATASSQVLIPEINLNDTFDTFALDFSREKKLLECLDYLTAPNPPTIREELCTASYDTITVHWTSDDEFSVVSYELQYTIFTGQANVVSLCNSADSWMIVPNIKQNHYTVHGLQSGTKYIFMVKAINQAGSRSSEPGKLKTNSQPFKLDPKSAHRKLKVSHDNLTVERDESSSKKSHTPERFTSQGSYGVAGNVFIDSGRHYWEVVISGSTWYAIGLAYKSAPKHEWIGKNSASWALCRCNNNWVVRHNSKEIPIEPAPHLRRVGILLDYDNGSIAFYDALNSIHLYTFDVAFAQPVCPTFTVWNKCLTIITGLPIPDHLDCTEQLP
partner: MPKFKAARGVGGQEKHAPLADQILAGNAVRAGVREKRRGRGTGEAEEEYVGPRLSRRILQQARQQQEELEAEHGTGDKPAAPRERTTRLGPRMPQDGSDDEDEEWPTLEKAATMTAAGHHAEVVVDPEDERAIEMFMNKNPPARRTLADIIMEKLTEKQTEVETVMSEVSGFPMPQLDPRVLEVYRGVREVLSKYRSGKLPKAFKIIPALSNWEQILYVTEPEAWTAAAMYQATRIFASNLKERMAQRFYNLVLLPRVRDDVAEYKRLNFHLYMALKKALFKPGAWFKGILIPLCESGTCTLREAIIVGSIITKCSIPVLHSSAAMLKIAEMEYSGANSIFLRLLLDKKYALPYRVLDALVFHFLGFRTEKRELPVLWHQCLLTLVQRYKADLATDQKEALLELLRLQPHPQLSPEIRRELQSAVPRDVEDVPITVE
B6: Notch homolog 2 N-terminal-like protein A (Homo sapiens), Q7Z3S9 (parent)
chain: MCVTYHNGTGYCKCPEGFLGEYCQHRDPCEKNRCQNGGTCVAQAMLGKATCRCASGFTGEDCQYSTSHPCFVSRPCLNGGTCHMLSRDTYECTCQVGFTGKECQWTDACLSHPCANGSTCTTVANQFSCKCLTGFTGQKCETDVNECDIPGHCQHGGTCLNLPGSYQCQCLQGFTGQYCDSLYVPCAPSPCVNGGTCRQTGDFTFECNCLPETVRRGTELWERDREVWNGKEHDEN
partner: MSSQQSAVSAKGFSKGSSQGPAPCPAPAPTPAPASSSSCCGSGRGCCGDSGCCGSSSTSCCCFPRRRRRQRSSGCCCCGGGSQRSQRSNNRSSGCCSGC
B7: Caspase recruitment domain-containing protein 9 (Homo sapiens), Q9H257 (parent)
chain: MSDYENDDECWSVLEGFRVTLTSVIDPSRITPYLRQCKVLNPDDEEQVLSDPNLVIRKRKVGVLLDILQRTGHKGYVAFLESLELYYPQLYKKVTGKEPARVFSMIIDASGESGLTQLLMTEVMKLQKKVQDLTALLSSKDDFIKELRVKDSLLRKHQERVQRLKEECEAGSRELKRCKEENYDLAMRLAHQSEEKGAALMRNRDLQLEIDQLKHSLMKAEDDCKVERKHTLKLRHAMEQRPSQELLWELQQEKALLQARVQELEASVQEGKLDRSSPYIQVLEEDWRQALRDHQEQANTIFSLRKDLRQGEARRLRCMEEKEMFELQCLALRKDSKMYKDRIEAILLQMEEVAIERDQAIATREELHAQHARGLQEKDALRKQVRELGEKADELQLQVFQCEAQLLAVEGRLRRQQLETLVLSSDLEDGSPRRSQELSLPQDLEDTQLSDKGCLAGGGSPKQPFAALHQEQVLRNPHDAGLSSGEPPEKERRRLKESFENYRRKRALRKMQKGWRQGEEDRENTTGSDNTDTEGS
partner: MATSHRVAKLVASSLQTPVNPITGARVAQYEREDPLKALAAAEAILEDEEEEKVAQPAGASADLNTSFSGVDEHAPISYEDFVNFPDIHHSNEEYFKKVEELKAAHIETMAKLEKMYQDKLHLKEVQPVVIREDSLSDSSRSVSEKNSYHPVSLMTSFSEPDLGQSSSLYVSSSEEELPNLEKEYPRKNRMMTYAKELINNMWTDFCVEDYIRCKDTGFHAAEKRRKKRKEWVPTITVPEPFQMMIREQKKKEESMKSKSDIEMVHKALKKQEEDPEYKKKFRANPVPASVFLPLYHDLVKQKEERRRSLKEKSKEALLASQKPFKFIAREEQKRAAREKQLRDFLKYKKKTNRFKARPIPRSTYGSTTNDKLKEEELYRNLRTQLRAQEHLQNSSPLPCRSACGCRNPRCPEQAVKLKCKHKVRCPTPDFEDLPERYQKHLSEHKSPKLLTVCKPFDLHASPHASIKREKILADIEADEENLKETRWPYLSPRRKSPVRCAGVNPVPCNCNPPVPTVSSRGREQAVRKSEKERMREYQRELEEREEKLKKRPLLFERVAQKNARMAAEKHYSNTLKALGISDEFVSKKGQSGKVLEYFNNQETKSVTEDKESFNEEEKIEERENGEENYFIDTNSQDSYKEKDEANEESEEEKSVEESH

Variants of: B1
Conditions: with cep70_human CEP70, Q8NHQ1
Sequence of cep70_human CEP70, Q8NHQ1 (Q8NHQ1 whole entry): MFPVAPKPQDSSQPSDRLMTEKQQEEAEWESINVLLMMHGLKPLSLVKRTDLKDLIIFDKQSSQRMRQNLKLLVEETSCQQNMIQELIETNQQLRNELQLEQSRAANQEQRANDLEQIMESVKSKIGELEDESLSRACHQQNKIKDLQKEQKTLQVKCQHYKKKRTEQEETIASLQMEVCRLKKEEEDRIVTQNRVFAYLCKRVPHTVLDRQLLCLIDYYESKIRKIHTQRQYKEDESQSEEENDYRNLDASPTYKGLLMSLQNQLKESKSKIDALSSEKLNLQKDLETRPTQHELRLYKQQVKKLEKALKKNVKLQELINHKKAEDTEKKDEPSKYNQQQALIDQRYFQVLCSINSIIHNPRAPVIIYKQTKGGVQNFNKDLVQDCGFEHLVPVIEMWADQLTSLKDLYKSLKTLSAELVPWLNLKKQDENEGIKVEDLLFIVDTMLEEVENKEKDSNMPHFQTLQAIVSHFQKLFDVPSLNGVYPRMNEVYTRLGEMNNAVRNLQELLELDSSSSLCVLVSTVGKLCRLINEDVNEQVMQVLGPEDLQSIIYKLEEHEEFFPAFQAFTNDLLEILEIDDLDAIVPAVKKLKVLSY

| effect of a mutation on the interaction | Variant |
| --- | --- |
| with no effect | T523I |

Variants of: B1
Conditions: with exoc5_human EXOC5, O00471
Sequence of exoc5_human EXOC5, O00471 (O00471 whole entry): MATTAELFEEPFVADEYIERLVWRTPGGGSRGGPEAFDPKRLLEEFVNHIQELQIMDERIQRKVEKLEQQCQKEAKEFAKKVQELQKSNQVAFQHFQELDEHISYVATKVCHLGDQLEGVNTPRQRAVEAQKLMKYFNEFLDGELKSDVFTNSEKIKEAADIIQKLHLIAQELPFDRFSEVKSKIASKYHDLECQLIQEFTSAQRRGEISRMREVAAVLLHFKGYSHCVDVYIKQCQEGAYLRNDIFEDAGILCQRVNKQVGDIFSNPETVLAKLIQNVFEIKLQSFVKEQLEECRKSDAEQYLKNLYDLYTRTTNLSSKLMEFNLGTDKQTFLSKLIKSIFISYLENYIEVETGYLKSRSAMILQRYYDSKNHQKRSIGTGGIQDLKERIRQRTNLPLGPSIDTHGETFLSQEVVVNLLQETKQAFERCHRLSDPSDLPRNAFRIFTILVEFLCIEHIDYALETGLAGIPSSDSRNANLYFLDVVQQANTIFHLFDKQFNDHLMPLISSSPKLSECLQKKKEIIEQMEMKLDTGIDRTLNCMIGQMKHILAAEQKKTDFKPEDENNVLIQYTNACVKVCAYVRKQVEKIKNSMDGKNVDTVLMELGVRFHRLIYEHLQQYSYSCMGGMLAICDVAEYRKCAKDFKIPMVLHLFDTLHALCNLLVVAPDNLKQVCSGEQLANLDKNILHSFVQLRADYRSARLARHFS

| effect of a mutation on the interaction | Variant |
| --- | --- |
| with no effect | I527T |

Variants of: B1
Conditions: with mbip1_human MBIP

| effect of a mutation on the interaction | Variant |
| --- | --- |
| with no effect | I527T |

Variants of: B2
Conditions: with ikzf1_human IKZF1, Q13422
Sequence of ikzf1_human IKZF1, Q13422 (Q13422 whole entry): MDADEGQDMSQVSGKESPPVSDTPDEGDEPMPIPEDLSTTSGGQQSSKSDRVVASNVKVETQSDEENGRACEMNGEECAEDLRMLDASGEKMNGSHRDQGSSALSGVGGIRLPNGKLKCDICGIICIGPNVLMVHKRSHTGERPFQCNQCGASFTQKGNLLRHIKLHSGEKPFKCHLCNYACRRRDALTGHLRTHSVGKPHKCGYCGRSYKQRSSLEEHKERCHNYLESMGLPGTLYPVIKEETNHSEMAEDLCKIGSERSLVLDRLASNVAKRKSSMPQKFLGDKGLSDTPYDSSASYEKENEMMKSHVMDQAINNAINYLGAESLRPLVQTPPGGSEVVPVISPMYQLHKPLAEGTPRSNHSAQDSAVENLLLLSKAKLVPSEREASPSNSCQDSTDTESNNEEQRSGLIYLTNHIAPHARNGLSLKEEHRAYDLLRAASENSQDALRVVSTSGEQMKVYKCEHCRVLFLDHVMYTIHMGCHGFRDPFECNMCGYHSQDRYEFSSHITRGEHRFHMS

| effect of a mutation on the interaction | Variant |
| --- | --- |
| with no effect | N226S |
| with no effect | R213C |

Variants of: B3
Conditions: with creb3_human CREB3, O43889

| effect of a mutation on the interaction | Variant |
| --- | --- |
| with no effect | R129W |

Variants of: B4
Conditions: with ra51d_human RAD51D

| effect of a mutation on the interaction | Variant |
| --- | --- |
| with no effect | A24V |
| with no effect | N119D |

Variants of: B5
Conditions: with byst_human BYSL

| effect of a mutation on the interaction | Variant |
| --- | --- |
| disrupting interaction strength | D84N |

Variants of: B6
Conditions: with crct1_human CRCT1, Q9UGL9

| effect of a mutation on the interaction | Variant |
| --- | --- |
| with no effect | R74Q |
| with no effect | A115T |

Variants of: B7
Conditions: with FAM161A

| effect of a mutation on the interaction | Variant |
| --- | --- |
| with no effect | V385L |
